Measured values from patent publication US20240368655.

Molecular target: Concanavalin A (UniProt P02866)
Assay: SELEX
Conditions: FANA copy of the listed DNA template; every U is C8-alkyne-FANA U conjugated to 2-azidoethyl-alpha-D-mannose; displayed on its encoding dsDNA; round 3 recovery by qPCR; round 1 about 0.14%; PBS, 2.5 mM MgCl2, 1 mM CaCl2, 0.1 mM MnCl2, 0.01% Tween 20, room temperature

## CCTATAGCCGTTTGCACAAGNNNNNNNNNNNNNNNNNNNNNNNNNNNNNNNNNNNNNNNNCCCGTACCCGTTAAGATTACTTCGGACTGGGATC [Man-cmFANA N40 library, round 3]
  binding: 47 % recovery
